Test results taken from PMC4254451, “The Crystal Structures of Apo and cAMP-Bound GlxR from Corynebacterium glutamicum Reveal Structural and Dynamic Changes upon cAMP Binding in CRP/FNR Family Transcription Factors”.

Molecular target: T1, GlxR (Cg-GlxR) (Corynebacterium glutamicum, UniProt Q79VI7 1-227)
T1 sequence: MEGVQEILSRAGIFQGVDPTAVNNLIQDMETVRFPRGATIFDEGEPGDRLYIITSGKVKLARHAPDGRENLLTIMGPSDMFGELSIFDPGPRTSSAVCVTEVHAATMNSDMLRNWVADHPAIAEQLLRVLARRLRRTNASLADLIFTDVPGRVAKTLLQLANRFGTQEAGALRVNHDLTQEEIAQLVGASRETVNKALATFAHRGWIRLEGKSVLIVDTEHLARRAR
Experiment: fluorescence anisotropy; 1.5 mM cAMP; 100 mM KH2PO4 pH 7.8, 200 mM KCl, 1 mM 1-thioglycerol, 0 or 1.5 mM cAMP, 5 nM labelled DNA; temperature not stated
Settings: protein: recombinant; tags: His6 (N-terminal, pET16b); chain copies: 2; label: 5'-FITC on strand 1; blunt

B1: FITC-labelled 26-mer duplex (dsDNA)
DNA 1: ATTAATGTGAGTTAGCTCACTCATTA
DNA 2: TAATGAGTGAGCTAACTCACATTAAT
Kd: 87 nM
